Experimental findings from paper PMC5770198 are described below.

Substrate in this data set: O=c1cc(-c2ccccc2)oc2cc(O)cc(O)c12
The data set can be described thus: cells, lysate or membranes. Particulars: 1 mM NADPH, 100 mM sodium phosphate pH 7.9, 0.5 mM reduced glutathione, 28°C, chrysin 0.1-5 μM.

B1: SbCYP82D1.1 (Scutellaria baicalensis) (protein)
chain: MELSSVIYGAIALLSLFYCYLHFSKPKKSSLNAPPEAGGARFITGHLHLMDGRSASDKLPHINLGLLADQHGPIFTIRLGVHRAVVVSSWELAKEIFTTHDTAVMARPRLIADDYLSYDGASLGFSPYGPYWREIRKLVTTELLSARRIELQRATRVREITQFTGELYKLWEEKKDGSGRVLVDMKQWLGNLSLNLVSRMVVGKRFYGGDDSETTKRWRGVMREFFQLIGQFIPGDGLPFLRWLDLGGFEKRTRDTAYELDKIIAMWLAEYRKREYSGDDKEQCFMALMLSLVQANPTLQLHYDADTIIKATCQVLISAASDTTTVILIWVISLLLNNADVLKKVQEELDEQVGRERRVEESDISNLPYLQAVVKETMRLYPPAPFAGVRAFSEDCTVGGYHIQKGTFLIVNLWKLHRDPRVWSDDALEFKPQRFFDKKVEVKGQDFELMPFGGGRRMCPGSNLGMHMVHFVLANILQAFDITTGSTVDMTESVGLTNMKATPLDAILTPRLSPTLY
Turning to B1, the Km (3 min) was 0.121 µM.

B2: SbCYP82D2 (Scutellaria baicalensis) (protein)
chain: MLYDNSQYLAMEFSSAIYGAIAFFLFLYYCLLYTTSSKPNTRAYKAPPEAGGARLFSGHLHLMAGGTTGELPHINLANLADKHGPVFTIRLGVKRALVVSSWESAKELFTTCDVAVSSRPRMKAAKLLGYDFAMFGFAPYGAYWRELRKLISVELLSTRRMELQKEVRDSETRESIKELYKLWEERSEGSDSVLVDMKQWFGDLNLNVVLRMVAGKRWIGPETGRWREVLRDFFYLAGMFVPADAFPFLGWLDLGGHEKRMRQTAKELDGIVGGWVAEHREKEYSGEDKPKDFVDVMLSVVQGSSLRADYDADTIIKATCEALIVGGSDTTTVMLIWTLSFLLNNRHVLRKAQEELDKHVGRERRVNQSDINNLVYLQAIVKETLRLYPAGPIGGIREFTQDCQVGGYHVPKGTWLIVNLWKLHRDPKVWSEDCLEFRPERFLNKNIDVRGQDFELIPFGGGRRICPGANFGLHMLHLVLANLLQAFELTTVSDQVIDMTESAGMTNMKATPLNVLVAPRLSPTLY
On to B2, for which the Km (30 min) was found to be 1.051 µM.

In general, Km refers to the concentration of substrate that gives half-maximal velocity.
